These results are taken from PMC9474600 (Immunity, 2022).

This test has as its target Recombinant soluble HA trimer of A/New Caledonia/20/1999 (H1N1 NC99) (Influenza A virus A/New …, strain). The test is described as follows: cryo-EM structure.

B1: 310-39G10 Fab (Fab, V domains shown)
VH: QVQLVQSGAEVKKPGSSVKVSCKASGGTFSRYTISWVRQAPGQGLEWMGRISPIAGLENYAQKFQGRVTITADISTSTAYMELSSLRSDDTAVYYCAGSSGYYQPPPYWGQGTLVTVSS
VL: EIVLTQAPFSLSLSPGERATLSCRASQSVSSSSLAWYHQKPGQAPRLLIYGASSRATGIPDRFSGSGSGTDFTLTISRLEPEDFSLYYCQQYGSSPLTFGQGTRLEIK
As to B1, the binding result is on record as “binds”.

B2: 310-63E6 Fab (Fab, V domains shown)
VH: QVQLVQSGAEVKKPGSSVKVSCTASGGTFSTYQFSWVRQAPGQGLEWMGRIVPIQGMDYAQKFRGRVTITADKWTSTVYMEVTSLRSEDTAVYYCATSRSMYFYYQLDVWGRGTTVTVSS
VL: EIVLTQSPGTLSLSPGERATVSCRASQSVTSTFLAWYQQRPGQAPRLLIYGASSRATGIPDRFSGSGSEADFTLTINRLEPEDFAVYYCQQYATSPWTFGQGTKVEIK
As to B2, the binding result was “binds”.
